Patent US20190194323A1 (ALLAKOS, published 2019)
Substitutions are numbered along the chain they refer to.

How the values were obtained:
[1] = target: Siglec-7 on primary human cells (NK cells, CD8+ tumor-infiltrating T cells) (human) (UniProt Q9Y286)
[2] = target: Siglec-7 on primary human cells (NK cells, CD8+ tumor-infiltrating T cells) (human) (UniProt Q9Y286); remark: listed apart in the source
Siglec-7-ECD [3] = target: T1, Siglec-7-ECD (human, UniProt Q9Y286 19-353); experiment: bio-layer interferometry (ForteBio): antibody captured on the sensor, Siglec-7-ECD as analyte, 1:1 global fit
T1 construct: also called p75; AIRM
Protocol: A panel of antibodies was evaluated for binding to Siglec-7. The results identified anti-Siglec-7 antibodies that have improved KD values compared to commercially available anti-Siglec-7 antibodies (FIG. 7).
Antibody binding analysis was carried out by bio-layer interferometry (ForteBio). […] Antibodies were captured on anti-mouse kinetic sensors at 0.5 ug/mL; Siglec-7-ECD was used as analyte and diluted in assay buffer from 50 nM to 1.56 nM with 2× dilutions. Two-minute associations were conducted, followed by 10-minute dissociations. Results were determined relative to a control empty reference AHC sensor, and analyzed using ForteBio analysis software with 1:1 global fit parameters.

Siglec-7-ECD [4] = target: T1, Siglec-7-ECD; experiment: value quoted in the legend box of the internalization graph; same value as in the Figure 7 table (bio-layer interferometry)
Siglec-7-ECD-Fc = target: T2, Siglec-7-ECD-Fc (human, UniProt Q9Y286 19-353); experiment: ligand blocking on cells, flow cytometry: antibody dilutions pre-mixed with 10 nM Siglec-7-ECD-Fc, then binding of Siglec-7-ECD-Fc to Siglec-7 ligands on A375 melanoma cells
T2 construct: also called recombinant Siglec-7-Fc fusion protein; Siglec-7-Fc; not shown: human Fc (huFc)
Protocol: Recombinant Siglec-7-Fc was added to A375 cells in the presence of anti-Siglec-7 antibodies at increasing concentrations and binding of the complex was detected on the cell surface.
Human melanoma cell line A375, which expresses high level of ligands for Siglec-7, was used to determine the blocking activity of anti-Siglec-7 antibodies in a cell based assay. Two-fold serial dilutions of anti-Siglec-7 antibodies (40 nM to 40 pM) were combined with 10 nM Siglec-7-ECD-Fc in FACS buffer (PBS/2% BSA) and incubated on ice for 30 minutes. 2.5×10e4 A375 cells per well were added to round bottom 96-well tissue culture plates in FACS buffer, plates were centrifuged at 400 g for 2 min, supernatant was removed and cells were re-suspended in 100 ul of the antibody-Siglec-7 complexes. After a 1 hour incubation on ice, cells were washed twice and incubated for 30 minutes with goat anti-human F(ab′)₂ fragment conjugated to AF647 (Jackson IR labs) at 1 ug/ml in FACS buffer. After two more washes, cells were fixed in PBS/2% PFA and acquired on a Novocyte flow cytometer (ACEA biosciences). IC₅₀ values for blocking were determined based on plotting mean fluorescence in the APC channel and analysis using Prism Graphpad software.

Siglec-7-ECD [5] = target: T1, Siglec-7-ECD; experiment: monovalent Fab; bio-layer interferometry (ForteBio) per Methods
Siglec-7-ECD [6] = target: T1, Siglec-7-ECD; experiment: monovalent Fab; bio-layer interferometry (ForteBio) per Methods; No. 12 of Table 1 (second entry of the pair; No. 2 gives 250-500)
Siglec-7-ECD [7] = target: T1, Siglec-7-ECD; experiment: monovalent Fab; bio-layer interferometry (ForteBio) per Methods; lower end of the range 250-500; No. 20 of Table 1
Siglec-7-ECD [8] = target: T1, Siglec-7-ECD; experiment: monovalent Fab; bio-layer interferometry (ForteBio) per Methods; upper end of the range 250-500; No. 20 of Table 1
Siglec-7-ECD [9] = target: T1, Siglec-7-ECD; experiment: monovalent Fab; bio-layer interferometry (ForteBio) per Methods; No. 13 of Table 1 (second entry of the pair; No. 6 also gives >500)
[10] = target: T3, Siglec-7 on primary human cells (NK cells, CD8+ tumor-infiltrating T cells) (human, UniProt Q9Y286 19-467); experiment: cell-based or functional assay
[11] = target: T3, Siglec-7 on primary human cells (NK …); experiment: cell-based or functional assay; remark: listed apart in the source

T1 sequence (Q9Y286 19-353 limits assumed): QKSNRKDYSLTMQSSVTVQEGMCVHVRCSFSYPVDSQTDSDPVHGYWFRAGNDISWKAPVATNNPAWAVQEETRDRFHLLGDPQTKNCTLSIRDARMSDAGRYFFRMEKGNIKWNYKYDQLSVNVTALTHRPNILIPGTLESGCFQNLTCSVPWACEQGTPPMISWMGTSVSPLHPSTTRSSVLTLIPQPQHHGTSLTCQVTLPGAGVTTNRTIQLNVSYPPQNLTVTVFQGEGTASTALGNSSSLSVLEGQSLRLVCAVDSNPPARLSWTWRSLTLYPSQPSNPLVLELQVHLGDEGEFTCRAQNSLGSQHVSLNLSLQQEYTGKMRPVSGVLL
T2 sequence (Q9Y286 19-353): as the sequence (Q9Y286 19-353 limits assumed) above
Chain of Siglec-7 on primary human cells (NK cells, CD8+ tumor-infiltrating T cells) (human) (Q9Y286 19-467 limits assumed): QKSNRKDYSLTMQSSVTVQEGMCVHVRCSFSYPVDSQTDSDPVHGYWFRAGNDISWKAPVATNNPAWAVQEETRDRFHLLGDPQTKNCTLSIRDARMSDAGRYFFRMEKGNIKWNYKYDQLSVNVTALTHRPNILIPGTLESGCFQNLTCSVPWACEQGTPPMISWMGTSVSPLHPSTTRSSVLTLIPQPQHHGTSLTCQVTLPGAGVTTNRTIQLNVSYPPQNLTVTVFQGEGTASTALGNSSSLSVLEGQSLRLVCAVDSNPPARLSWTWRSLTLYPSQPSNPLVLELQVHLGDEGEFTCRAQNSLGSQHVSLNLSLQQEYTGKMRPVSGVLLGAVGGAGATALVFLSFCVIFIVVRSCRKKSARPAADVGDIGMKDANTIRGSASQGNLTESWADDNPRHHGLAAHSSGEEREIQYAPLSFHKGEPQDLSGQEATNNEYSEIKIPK
T3 sequence (Q9Y286 19-467 limits assumed): as above

Molecule “anti-Siglec-7 antibody clone S7.7 (BioLegend)” has an IC50 of Siglec-7 internalization on NK cells (24 h, PBMC; remaining surface Siglec-7 stained with 4B12-AF647) [1] of 0.469 nM, an IC50 (read off the curve) [2] of 0.07 mg/L and a Kd (Siglec-7-ECD [3]) of 0.422 nM. For the same molecule, the Kd (Siglec-7-ECD [4]) was 0.422 nM and the IC50 (Siglec-7-ECD-Fc) was 4.26 nM.

B1: humanized 16H11-derived Fab, VH AK417-17 / VL AK418-2 (Fab, V domains shown)
VH: QVQLVQSGAEVKKPGSSVKVSCKASGYDFSNFWMNWVRQAPGQGLEWMGGIYPGDGEINYAQKFQGRVTITADESTSTAYMELSSLRSEDTAVYYCARDDYLRAMDIWGQGTMVTVSS
VL: DIQMTQSPSSLSASVGDRVTITCRASGNIHNYLAWYQQKPGKAPKFLLYSAKRLESGVPSRFSGSGSGTDYTLTISSLQPEDFATYYCQHFWSSPYTFGGGTKVEIK
notes: Measured as monovalent Fab; also called No. 2; No. 12
For B1, the Kd (Siglec-7-ECD [5]) was 0.25 to 0.5 nM and the Kd (Siglec-7-ECD [6]) was greater than 0.5 nM.

B2: humanized 16H11-derived Fab, VH AK417-17 / VL AK435-7 (Fab, V domains shown)
VH: B1 VH
VL: B1 VL with G27Q, S56D
notes: Measured as monovalent Fab; also called No. 14; No. 20
In the case of B2, the Kd (Siglec-7-ECD [5]) is reported as greater than 0.5 nM, the Kd (Siglec-7-ECD [7]) is reported as no less than 0.25 nM and the Kd (Siglec-7-ECD [8]) is reported as no more than 0.5 nM.

B3: humanized 16H11-derived Fab, VH AK417-17 / VL AK419-2 (Fab, V domains shown)
VH: B1 VH
VL: B1 VL with G27Q
notes: Measured as monovalent Fab; also called No. 6; No. 13
Molecule B3 has a Kd (Siglec-7-ECD [5]) greater than 0.5 nM and a Kd (Siglec-7-ECD [9]) greater than 0.5 nM.

B4: monoclonal antibody 3F1 (antibody, V domains shown)
VH: EFQLQQSGPEMVKPGASVKMSCKASGDSFTDYKINWVKQNNGKSLEWIGVINPDSGTTSYNQIFEGKATLTVDQSSSTAYMQVNRLTSEDSAVYYCTTWDDYSFYAMDYWGQGTSVTVSS
VL: DVLMTQTPLSLPVSLGDQASISCRSSQNIVHSNGNTYLEWFLQKPGQSPKLLIYKVSNRFSGVPDRFSGSGSGTDFTLKISRVEAEDLGVYYCFQGSHIPWTFGGGTKLEIK
B4 was tested, and the “IC50 of Siglec-7 internalization on NK cells (24 h, PBMC; remaining surface Siglec-7 stained with 4B12-AF647)” value [10] was 0.013 nM, the “IC50 (read off the curve)” value [11] was roughly 0.001 mg/L and the Kd (Siglec-7-ECD [3]) was 0.041 nM. It also gave a Kd (Siglec-7-ECD [4]) of 0.041 nM and an IC50 (Siglec-7-ECD-Fc) of 8.5 nM.
